{
  "source": "patent US4125375A",
  "about": "“Separation of solid and liquid components of mixtures” (National Research Development Corporation, priority 1975, dated 1978)",
  "tested_on": "antibody to BTG coupled to Sepharose 4B",
  "assay": "Radioimmunoassay for platelet β thromboglobulin (BTG), Sepharose 4B-coupled antibody separated by sucrose layering",
  "assay_type": "binding",
  "protocol": "After primary incubation with ^125 I BTG, 1 ml aliquots of standard BTG of known concentrations in the range from 0.2 to 25.6 µg/ml are incubated in 75 × 17 mm sample tubes with an antibody to BTG coupled to Sepharose 4B. After incubation the Sepharose 4B and supernatant are separated by the method of the invention as follows.\n1 ml of diluent is added to each sample tube followed by 6 ml of 10% w/v sucrose in water. The sucrose solution is added over a period of about 15 seconds through a stainless steel probe by means of a peristaltic pump. The outlet of the probe is positioned about 0.5 cm from the bottom of the sample tube, and the sucrose solution forms a discrete layer beneath the incubate. In this way the sucrose addition is carried out in a substantially non-turbulent manner. The sample tubes are then left to stand for about 60 minutes during which time the Sepharose 4B together with bound BTG settles out of the incubate into the sucrose solution forming a deposit at the bottom of each tube.\nEach sample tube, in turn, is then placed in an auto-γ counter (Wallac Instruments Ltd) modified as shown in FIG. 1 and counted for a period of 49.9 seconds (this being the period required to yield 10,000 counts from the total amount of ^125 I-BTG added to each tube). The sample tubes are then left to stand for a further 16 hours, and each sample tube is again counted. The results obtained are given in Table I, dividing the counts obtained by 100 giving the results in terms of the percentage of the total ^125 I-BTG which has been bound in each case.\nWith reference to FIG. 1 the γ-counter has a well type detector into which the sample tube 1 enters. The detector is modified by placing a 2.5 cm length of plastic tube 2 in the bottom of the well and adding an annular disc 3 of lead screening material beneath customary annular plastic disc spill shield 4. In such an arrangement the source which is to be counted, the bound ^125 I BTG linked to the deposit of Sepharose 4B 5 at the bottom of the tube 1, is well within the detector. The free ^125 I BTG present in the 2 ml layer of aqueous incubate 6 is separated from the detector by the intervening 6 ml layer 7 of 10% w/v sucrose solution, and also the detector is shielded to a large extent against stray radiation from the free fraction by the disc 3 of lead screening material. For all intents and purposes the detector \"sees\" only radiation from the bound and not from the free fraction.",
  "key": {"[1]": {"conditions": "0 μg standard BTG, A after 1 hr. standing"}, "[2]": {"conditions": "0 μg standard BTG, B after 17 hrs. standing"}, "[3]": {"conditions": "Controls without antibody, A after 1 hr. standing"}, "[4]": {"conditions": "Controls without antibody, B after 17 hrs. standing"}, "[5]": {"conditions": "0.2 μg standard BTG, A after 1 hr. standing"}, "[6]": {"conditions": "0.2 μg standard BTG, B after 17 hrs. standing"}, "[7]": {"conditions": "0.4 μg standard BTG, A after 1 hr. standing"}, "[8]": {"conditions": "0.4 μg standard BTG, B after 17 hrs. standing"}, "[9]": {"conditions": "0.8 μg standard BTG, A after 1 hr. standing"}, "[10]": {"conditions": "0.8 μg standard BTG, B after 17 hrs. standing"}, "[11]": {"conditions": "1.6 μg standard BTG, A after 1 hr. standing"}, "[12]": {"conditions": "1.6 μg standard BTG, B after 17 hrs. standing"}, "[13]": {"conditions": "3.2 μg standard BTG, A after 1 hr. standing"}, "[14]": {"conditions": "3.2 μg standard BTG, B after 17 hrs. standing"}, "[15]": {"conditions": "6.4 μg standard BTG, A after 1 hr. standing"}, "[16]": {"conditions": "6.4 μg standard BTG, B after 17 hrs. standing"}, "[17]": {"conditions": "12.8 μg standard BTG, A after 1 hr. standing"}, "[18]": {"conditions": "12.8 μg standard BTG, B after 17 hrs. standing"}, "[19]": {"conditions": "25.6 μg standard BTG, A after 1 hr. standing"}, "[20]": {"conditions": "25.6 μg standard BTG, B after 17 hrs. standing"}},
  "note": "Several values for one entry are separate records, joined by “and”; a condition that tells them apart may be missing. Equal entries are not always repeated.",
  "data": [
    {"molecule": "^125 I-BTG: radioiodinated BTG tracer of the radioimmunoassay (protein, UniProt P02775 48-128, looked up, Beta-thromboglobulin 125I label, radioiodinated BTG tracer of the radioimmunoassay) Beta-thromboglobulin: GKEESLDSDLYAELRCMCIKTTSGIHPKNIQSLEVIGKGTHCNQVEVIATLKDGRKICLDPDAPRIKKIVQKKLAGDESAD", "values": [
      {"measurement": "% bound (of total ^125 I-BTG)", "setting": "[1]", "result": 45.7, "unit": "%"},
      {"measurement": "Counts (in 49.9 sec)", "setting": "[1]", "result": "4617 counts and 4492 counts and 4581 counts and 4599 counts"},
      {"measurement": "% bound (of total ^125 I-BTG)", "setting": "[2]", "result": 45.1, "unit": "%"},
      {"measurement": "Counts (in 49.9 sec)", "setting": "[2]", "result": "4584 counts and 4474 counts and 4503 counts and 4496 counts"},
      {"measurement": "% bound (of total ^125 I-BTG)", "setting": "[3]", "result": 1.5, "unit": "%"},
      {"measurement": "Counts (in 49.9 sec)", "setting": "[3]", "result": "133 counts and 180 counts"},
      {"measurement": "% bound (of total ^125 I-BTG)", "setting": "[4]", "result": 1.5, "unit": "%"},
      {"measurement": "Counts (in 49.9 sec)", "setting": "[4]", "result": "160 counts and 149 counts"}
    ]},
    {"molecule": "platelet β thromboglobulin (protein, UniProt P02775 48-128, looked up, Beta-thromboglobulin, standard BTG of known concentrations) Beta-thromboglobulin: GKEESLDSDLYAELRCMCIKTTSGIHPKNIQSLEVIGKGTHCNQVEVIATLKDGRKICLDPDAPRIKKIVQKKLAGDESAD", "values": [
      {"measurement": "% bound (of total ^125 I-BTG)", "setting": "[5]", "result": 32.3, "unit": "%"},
      {"measurement": "Counts (in 49.9 sec)", "setting": "[5]", "result": "3061 counts and 3409 counts"},
      {"measurement": "% bound (of total ^125 I-BTG)", "setting": "[6]", "result": 31.3, "unit": "%"},
      {"measurement": "Counts (in 49.9 sec)", "setting": "[6]", "result": "3110 counts and 3154 counts"},
      {"measurement": "% bound (of total ^125 I-BTG)", "setting": "[7]", "result": 27.2, "unit": "%"},
      {"measurement": "Counts (in 49.9 sec)", "setting": "[7]", "result": "2657 counts and 2784 counts"},
      {"measurement": "% bound (of total ^125 I-BTG)", "setting": "[8]", "result": 27.3, "unit": "%"},
      {"measurement": "Counts (in 49.9 sec)", "setting": "[8]", "result": "2059 counts and 2816 counts"},
      {"measurement": "% bound (of total ^125 I-BTG)", "setting": "[9]", "result": 22.0, "unit": "%"},
      {"measurement": "Counts (in 49.9 sec)", "setting": "[9]", "result": "2117 counts and 2286 counts"},
      {"measurement": "% bound (of total ^125 I-BTG)", "setting": "[10]", "result": 20.9, "unit": "%"},
      {"measurement": "Counts (in 49.9 sec)", "setting": "[10]", "result": "2059 counts and 2129 counts"},
      {"measurement": "% bound (of total ^125 I-BTG)", "setting": "[11]", "result": 15.1, "unit": "%"},
      {"measurement": "Counts (in 49.9 sec)", "setting": "[11]", "result": "1469 counts and 1552 counts"},
      {"measurement": "% bound (of total ^125 I-BTG)", "setting": "[12]", "result": 14.5, "unit": "%"},
      {"measurement": "Counts (in 49.9 sec)", "setting": "[12]", "result": "1451 counts and 1447 counts"},
      {"measurement": "% bound (of total ^125 I-BTG)", "setting": "[13]", "result": 10.4, "unit": "%"},
      {"measurement": "Counts (in 49.9 sec)", "setting": "[13]", "result": "1103 counts and 986 counts"},
      {"measurement": "% bound (of total ^125 I-BTG)", "setting": "[14]", "result": 9.9, "unit": "%"},
      {"measurement": "Counts (in 49.9 sec)", "setting": "[14]", "result": "979 counts and 1001 counts"},
      {"measurement": "% bound (of total ^125 I-BTG)", "setting": "[15]", "result": 7.1, "unit": "%"},
      {"measurement": "Counts (in 49.9 sec)", "setting": "[15]", "result": "706 counts and 721 counts"},
      {"measurement": "% bound (of total ^125 I-BTG)", "setting": "[16]", "result": 6.6, "unit": "%"},
      {"measurement": "Counts (in 49.9 sec)", "setting": "[16]", "result": "650 counts and 665 counts"},
      {"measurement": "% bound (of total ^125 I-BTG)", "setting": "[17]", "result": 4.8, "unit": "%"},
      {"measurement": "Counts (in 49.9 sec)", "setting": "[17]", "result": "465 counts and 495 counts"},
      {"measurement": "% bound (of total ^125 I-BTG)", "setting": "[18]", "result": 4.5, "unit": "%"},
      {"measurement": "Counts (in 49.9 sec)", "setting": "[18]", "result": "440 counts and 458 counts"},
      {"measurement": "% bound (of total ^125 I-BTG)", "setting": "[19]", "result": 3.5, "unit": "%"},
      {"measurement": "Counts (in 49.9 sec)", "setting": "[19]", "result": "346 counts and 357 counts"},
      {"measurement": "% bound (of total ^125 I-BTG)", "setting": "[20]", "result": 3.3, "unit": "%"},
      {"measurement": "Counts (in 49.9 sec)", "setting": "[20]", "result": "337 counts and 321 counts"}
    ]}
  ]
}
